Experiments:
purified protein [1] = substrate: C/C(=C\CNc1ncnc2c1ncn2[C@@H]1O[C@H](COP(=O)(O)O)[C@@H](O)[C@H]1O)CO; assay: purified protein; type: biochemical, Chlorella variabilis; details: 50 mM Tris, 1 mM MgCl2, 1 mM DTT, pH 7, 30 °C
purified protein [2] = substrate: CC(C)=CCNc1ncnc2c1ncn2[C@@H]1O[C@H](COP(=O)(O)O)[C@@H](O)[C@H]1O; assay: purified protein; type: biochemical, Chlorella variabilis; details: 50 mM Tris, 1 mM MgCl2, 1 mM DTT, pH 7, 30 °C

B1: CvarLOG1 (Chlorella variabilis) (protein)
chain: MADSQPASFRKIAVFCGASSGSNPLYIEAARLLGAEMARRGIGLVYGGGNVGLMGAVAEAVGSRLGPDQVIGVIPAALEPREISGTTVGEIRVVGSMHERKAMMFEEADAFIMIPGGYGTLDETLEITTWQQLGFHTKPVGLLNINGFFNKLLAFLDHATQEGFIRPSSRAILVSGDTPGELIDTLAAYQAPPSLLRLASEGKLGVHERG
notes: native protein 211 residues
Km (purified protein [1]): 133.5 µM
Km (purified protein [2]): 54.99 µM

From PMC7891180, “Exploring the Role of a Cytokinin-Activating Enzyme LONELY GUY in Unicellular Microalga Chlorella variabilis” (Frontiers in Plant Science, 2021)
